First the molecules themselves.
B1: LINE1-full (parent)
chain: UACGUAGGUGGUUUUCCCCUGAUAGUGCUAAGGGGGCCUGGAAGUUUGGACUGGGCAGAGCUCAACACAGCGUGGCAAAGUGGCUGUGGCUAGACUGCCUCUCUGGAUUCCUCGUCACUCAGCAGGGCAUCUCUGAGAGAAAUGCC

The variants in the series derive from B1. The series can be described thus: self-cleavage, relative activity (ratio to wild type); higher = more cleavage; in vitro, sequencing; the parent is a self-cleaving ribozyme.
Regarding UACGUAGGUGGUUUUCCCCUGAUAGUGCUAAGGGGGCCUGGAAGUUUGGACUGGGCAGAGCUCAACACAGCGUGGCAAAGUGGCUGUGGCUAGACUGCCGCUCUGGAUUCCUCGUCACUCAGCAGGGCAUCUCUGAGAGAAAUGCC [U100G], the self-cleavage was determined as 1.24. With UACGUAGGUGGUUUUCCCCUGAUAGUGCUAAGGGGGCCUGGAAGUUUGGACUGGGCAGAGCUCAACACAGCGUGGCAAAGUGGCUGUGGCUAGACUGCCCCUCUGGAUUCCUCGUCACUCAGCAGGGCAUCCCUGAGAGAAAUGCC [U100C U132C], the self-cleavage was found to be 1.67. UACGUAGGUGGUUUUCCCCUGAUAGUGCUAAGGGGGCCUGGAAGUUUGGACUGGGCAGAGCUCAACACAGCGUGGCAAAGUGGCUGUGGCUAGACUGCCCCUCUUGAUUCCUCGUCACUCAGCAGGGCAUCUCUGAGAGAAAUGCC [U100C G105U]: the self-cleavage came out at 2.13. In the case of UACGUAGGUGGUUUUCCCCUGAUAGUGCUAAGGGGGCCUGGAAGUUUGGACUGGGCAGAGCUCAACACAGCGUGGCAAAGUGGCUGUGGCUAGACUGCCCCUCUGGAUUCCUCGUCACUCAGCAGGGCAUCUCUGAGAGAAAUGUC [U100C C145U], the self-cleavage is 2.29. On to UACGUAGGUGGUUUUCCCCUGAUAGUGCUAAGGGGGCCUGGAAGUUUGGACUGGGCAGAGCUCAACACAGCGUGGCAAAGUGGCUGUGGCUAGACUGCCGCUCUGGAUUCCUCGUUACUCAGCAGGGCAUCUCUGAGAGAAAUGCC [U100G C116U], for which the self-cleavage stood at 1.61. Regarding UACGUAGGUGGUUUUCCCCUGAUAGUGCUAAGGGGGCCUGGAAGUUUGGACUGGGCAGAGCUCAACACAGCGUGGCAAAGUGGCUGUGGCUAGACUGCCGCUCUGGAUUCCUCAUCACUCAGCAGGGCAUCUCUGAGAGAAAUGCC [U100G G114A], the self-cleavage worked out at 1.77. The figure for UACGUAGGUGGUUUUCCCCUGAUAGUGCUAAGGGGGCCUGGAAGUUUGGACUGGGCAGAGCUCAACACAGCGUGGCAAAGUGGCUGUGGCUAGACUGCCUGUCUGGAUUCCUCGUCACUCAGCAGGGCAUCUCUGAGAGAAAUGCC [C101G] is 1.78; for UACGUAGGUGGUUUUCCCCUGAUAGUGCUAAGGGGGCCUGGAAGUUUGGACUGGGCAGAGCUCAACACAGCGUGGCAAAGUGGCUGUGGCUAGACUGCCUUUCUGGAUUCCUCGUCACUCAGCAGGGCAUCUCUGAGAGAAAUGCC [C101U] it is 1.39; for UACGUAGGUGGUUUUCCCCUGAUAGUGCUAAGGGGGCCUGGAAGUUUGGACUGGGCAGAGCUCAACACAGCGUGGCAAAGUGGCUGUGGCUAGACUGCCUAUCUGGAUUCCUCGUCACUCAGCAGGGCAUCUCUGAGAGAAAUGCC [C101A] it is 1.38. For UACGUAGGUGGUUUUCCCCUGAUAGUGCUAAGGGGGCCUGGAAGUUUGGACUGGGCAGAGCUCAACACAGCGUGGCAAAGUGGCUGUGGCUAGACUGCCUUUCUGGAUUCCUCGUCACUCAGCAGGGCAUCUCUGAGGGAAAUGCC [C101U A138G], the self-cleavage was found to be 1.69. The figure for UACGUAGGUGGUUUUCCCCUGAUAGUGCUAAGGGGGCCUGGAAGUUUGGACUGGGCAGAGCUCAACACAGCGUGGCAAAGUGGCUGUGGCUAGACUGCCCCUCUGGAUUCCUCGUCACUCAGCAGGCCAUCUCUGAGAGAAAUGCC [U100C G127C] is 2.48. Under UACGUAGGUGGUUUUCCCCUGAUAGUGCUAAGGGGGCCUGGAAGUUUGGACUGGGCAGAGCUCAACACAGCGUGGCAAAGUGGCUGUGGCUAGACUGCCCCUCUGGAUUCCUCGUCACUCAGCAGGGCAUCUCUAAGAGAAAUGCC [U100C G135A] stands 1.74. Under UACGUAGGUGGUUUUCCCCUGAUAGUGCUAAGGGGGCCUGGAAGUUUGGACUGGGCAGAGCUCAACACAGCGUGGCAAAGUGGCUGUGGCUAGACUGCCCCUCUGGAUUCCUCGUCACUCAUCAGGGCAUCUCUGAGAGAAAUGCC [U100C G122U] stands 1.76. Turning to UACGUAGGUGGUUUUCCCCUGAUAGUGCUAAGGGGGCCUGGAAGUUUGGACUGGGCAGAGCUCAACACAGCGUGGCAAAGUGGCUGUGGCUAGACUGCCCCUCUGGAUUCCUCGUCACUCACCAGGGCAUCUCUGAGAGAAAUGCC [U100C G122C], the self-cleavage came out at 2.12. For UACGUAGGUGGUUUUCCCCUGAUAGUGCUAAGGGGGCCUGGAAGUUUGGACUGGGCAGAGCUCAACACAGCGUGGCAAAGUGGCUGUGGCUAGACUGCCCCUCUGGAUUCCUCGUCACUCAGCACGGCAUCUCUGAGAGAAAUGCC [U100C G125C], the self-cleavage worked out at 1.89. The figure for UACGUAGGUGGUUUUCCCCUGAUAGUGCUAAGGGGGCCUGGAAGUUUGGACUGGGCAGAGCUCAACACAGCGUGGCAAAGUGGCUGUGGCUAGACUGCCUAUCUGGAUUCCUAGUCACUCAGCAGGGCAUCUCUGAGAGAAAUGCC [C101A C113A] is 1.41; for UACGUAGGUGGUUUUCCCCUGAUAGUGCUAAGGGGGCCUGGAAGUUUGGACUGGGCAGAGCUCAACACAGCGUGGCAAAGUGGCUGUGGCUAGACUGCCCCUCUGGAUUCCUCGUCACUCAGCAGGGCAUCUCUGAGAUAAAUGCC [U100C G139U] it is 2.03. For the variant UACGUAGGUGGUUUUCCCCUGAUAGUGCUAAGGGGGCCUGGAAGUUUGGACUGGGCAGAGCUCAACACAGCGUGGCAAAGUGGCUGUGGCUAGACUGCCCCUCUGGAUUCCUCGUCACUCAGCAGUGCAUCUCUGAGAGAAAUGCC [U100C G126U], the self-cleavage came out at 1.37. The figure for UACGUAGGUGGUUUUCCCCUGAUAGUGCUAAGGGGGCCUGGAAGUUUGGACUGGGCAGAGCUCAACACAGCGUGGCAAAGUGGCUGUGGCUAGACUGCCCCUCUGGAUUCCUCGUCACUCAGCAGGGCAUCUCUGAGAGAAAUGCA [U100C C146A] is 1.75; for UACGUAGGUGGUUUUCCCCUGAUAGUGCUAAGGGGGCCUGGAAGUUUGGACUGGGCAGAGCUCAACACAGCGUGGCAAAGUGGCUGUGGCUAGACUGCCCCUCUGGAUUCCUCGACACUCAGCAGGGCAUCUCUGAGAGAAAUGCC [U100C U115A] it is 1.87. Under UACGUAGGUGGUUUUCCCCUGAUAGUGCUAAGGGGGCCUGGAAGUUUGGACUGGGCAGAGCUCAACACAGCGUGGCAAAGUGGCUGUGGCUAGACUGCCCCUCUGGAUUCCUCGCCACUCAGCAGGGCAUCUCUGAGAGAAAUGCC [U100C U115C] stands 2.98; under UACGUAGGUGGUUUUCCCCUGAUAGUGCUAAGGGGGCCUGGAAGUUUGGACUGGGCAGAGCUCAACACAGCGUGGCAAAGUGGCUGUGGCUAGACUGCCCCUCCGGAUUCCUCGUCACUCAGCAGGGCAUCUCUGAGAGAAAUGCC [U100C U104C], 2.14.

With UACGUAGGUGGUUUUCCCCUGAUAGUGCUAAGGGGGCCUGGAAGUUUGGACUGGGCAGAGCUCAACACAGCGUGGCAAAGUGGCUGUGGCUAGACUGCCCCUCAGGAUUCCUCGUCACUCAGCAGGGCAUCUCUGAGAGAAAUGCC [U100C U104A], the self-cleavage was 1.37. Under UACGUAGGUGGUUUUCCCCUGAUAGUGCUAAGGGGGCCUGGAAGUUUGGACUGGGCAGAGCUCAACACAGCGUGGCAAAGUGGCUGUGGCUAGACUGCCCCUCUGGACUCCUCGUCACUCAGCAGGGCAUCUCUGAGAGAAAUGCC [U100C U108C] stands 2.05; under UACGUAGGUGGUUUUCCCCUGAUAGUGCUAAGGGGGCCUGGAAGUUUGGACUGGGCAGAGCUCAACACAGCGUGGCAAAGUGGCUGUGGCUAGACUGCCCCUCUGGAUUCCCCGUCACUCAGCAGGGCAUCUCUGAGAGAAAUGCC [U100C U112C], 1.89; under UACGUAGGUGGUUUUCCCCUGAUAGUGCUAAGGGGGCCUGGAAGUUUGGACUGGGCAGAGCUCAACACAGCGUGGCAAAGUGGCUGUGGCUAGACUGCCCCUCUGGAUUCCUCGUCACCCAGCAGGGCAUCUCUGAGAGAAAUGCC [U100C U119C], 1.87. On to UACGUAGGUGGUUUUCCCCUGAUAGUGCUAAGGGGGCCUGGAAGUUUGGACUGGGCAGAGCUCAACACAGCGUGGCAAAGUGGCUGUGGCUAGACUGCCUAUCUGGAUUCCUCGUCACUCAGCGGGGCAUCUCUGAGAGAAAUGCC [C101A A124G], for which the self-cleavage was 0.98. Under UACGUAGGUGGUUUUCCCCUGAUAGUGCUAAGGGGGCCUGGAAGUUUGGACUGGGCAGAGCUCAACACAGCGUGGCAAAGUGGCUGUGGCUAGACUGCCUAUCUGGAUUCCUCGUCACUCAGCAGGGCUUCUCUGAGAGAAAUGCC [C101A A129U] stands 2.2. The figure for UACGUAGGUGGUUUUCCCCUGAUAGUGCUAAGGGGGCCUGGAAGUUUGGACUGGGCAGAGCUCAACACAGCGUGGCAAAGUGGCUGUGGCUAGACUGCCUAUCUGGAUUCCUCGUCACUCAGCAGGGCGUCUCUGAGAGAAAUGCC [C101A A129G] is 0. The figure for UACGUAGGUGGUUUUCCCCUGAUAGUGCUAAGGGGGCCUGGAAGUUUGGACUGGGCAGAGCUCAACACAGCGUGGCAAAGUGGCUGUGGCUAGACUGCCUAUCUGGAUUCCUCGUCACUCAGCAGGGCAUCUCUGAGAGAAGUGCC [C101A A142G] is 1.53; for UACGUAGGUGGUUUUCCCCUGAUAGUGCUAAGGGGGCCUGGAAGUUUGGACUGGGCAGAGCUCAACACAGCGUGGCAAAGUGGCUGUGGCUAGACUGCCUUUCUGGAUUCCUCGUCACUCGGCAGGGCAUCUCUGAGAGAAAUGCC [C101U A121G] it is 1.72; for UACGUAGGUGGUUUUCCCCUGAUAGUGCUAAGGGGGCCUGGAAGUUUGGACUGGGCAGAGCUCAACACAGCGUGGCAAAGUGGCUGUGGCUAGACUGCCUAUCUGGAUUCCUCGUCACUCAGCAGGGCAUCUCUGAGAGAGAUGCC [C101A A141G] it is 1.64. On to UACGUAGGUGGUUUUCCCCUGAUAGUGCUAAGGGGGCCUGGAAGUUUGGACUGGGCAGAGCUCAACACAGCGUGGCAAAGUGGCUGUGGCUAGACUGCCUAUCUGGGUUCCUCGUCACUCAGCAGGGCAUCUCUGAGAGAAAUGCC [C101A A107G], for which the self-cleavage is 1.57. The figure for UACGUAGGUGGUUUUCCCCUGAUAGUGCUAAGGGGGCCUGGAAGUUUGGACUGGGCAGAGCUCAACACAGCGUGGCAAAGUGGCUGUGGCUAGACUGCCUUUCUGGAUUCCUCGUCACUCAGCAGGGCAUCUCUGGGAGAAAUGCC [C101U A136G] is 1.8.

On to UACGUAGGUGGUUUUCCCCUGAUAGUGCUAAGGGGGCCUGGAAGUUUGGACUGGGCAGAGCUCAACACAGCGUGGCAAAGUGGCUGUGGCUAGACUGCCUAUCUGGAUUCCUCGUCACUCAGCAGGGCAUCCCUGAGAGAAAUGCC [C101A U132C], for which the self-cleavage came out at 1.39. Under UACGUAGGUGGUUUUCCCCUGAUAGUGCUAAGGGGGCCUGGAAGUUUGGACUGGGCAGAGCUCAACACAGCGUGGCAAAGUGGCUGUGGCUAGACUGCCCCCCUGGAUUCCUCGUCACUCAGCAGGGCAUCUCUGAGAGAAAUGCC [U100C U102C] stands 1.65; under UACGUAGGUGGUUUUCCCCUGAUAGUGCUAAGGGGGCCUGGAAGUUUGGACUGGGCAGAGCUCAACACAGCGUGGCAAAGUGGCUGUGGCUAGACUGCCCCUCUGGAUUCCUCGUCACUCAGCAGGGCACCUCUGAGAGAAAUGCC [U100C U130C], 2.16; under UACGUAGGUGGUUUUCCCCUGAUAGUGCUAAGGGGGCCUGGAAGUUUGGACUGGGCAGAGCUCAACACAGCGUGGCAAAGUGGCUGUGGCUAGACUGCCCCUCUGGAUUCCUCGUCACUCAGCAGGGCAUCUCUGAGAGAAACGCC [U100C U143C], 1.97. The figure for UACGUAGGUGGUUUUCCCCUGAUAGUGCUAAGGGGGCCUGGAAGUUUGGACUGGGCAGAGCUCAACACAGCGUGGCAAAGUGGCUGUGGCUAGACUGCCGCUCUGGAUUCCUUGUCACUCAGCAGGGCAUCUCUGAGAGAAAUGCC [U100G C113U] is 1.49.

The record behind these values is the RNAGym collection of RNA variant scans (doi:10.7554/elife.90254).
